Data: patent US20190004063A1

Columns and labels:
Assay in all cases: flow cytometry on modified HEK293T cells without CD74
[1] = target: SLA-DQα1*0204 + DQβ1*0601 (pairing 6) on modified HEK293T cells without CD74 (pig)
[2] = target: SLA-DRα*w04 + DRβ1*0403 (pairing 3) on modified HEK293T cells without CD74 (pig)
[3] = target: SLA-DQα1*0204 + DQβ1*0303 (pairing 5) on modified HEK293T cells without CD74 (pig)
[4] = target: SLA-DQα1*0101 + DQβ1*0601 (pairing 8) on modified HEK293T cells without CD74 (pig)
[5] = target: SLA-DRα*020102 + DRβ1*1001 (pairing 2) on modified HEK293T cells without CD74 (pig)
[6] = target: SLA-DRα*020102 + DQβ1*0303 (pairing 9) on modified HEK293T cells without CD74 (pig)
[7] = target: SLA-DRα*020102 + DRβ1*0403 (pairing 1) on modified HEK293T cells without CD74 (pig)
[8] = target: SLA-DRα*w04 + DRβ1*1001 (pairing 4) on modified HEK293T cells without CD74 (pig)
[9] = target: SLA-DRα*w04 + DQβ1*0303 (pairing 10) on modified HEK293T cells without CD74 (pig)
[10] = target: SLA-DQα1*0101 + DQβ1*0303 (pairing 7) on modified HEK293T cells without CD74 (pig)

Measured: background MFI

CerCLIP.1, a monoclonal antibody specific for invariant chain peptides associated with Class II SLA
1000 MFI: all assays above
